Assay [1] concerns the target T1, LAG-3-hFc protein (human LAG-3 extracellular region with hFc tag) (human, UniProt P18627 23-450).
T1 construct: also called hLAG-3-hFc; LAG-3 protein; not shown: human IgG Fc fragment (hFc) of the pCpC vector
T1 sequence: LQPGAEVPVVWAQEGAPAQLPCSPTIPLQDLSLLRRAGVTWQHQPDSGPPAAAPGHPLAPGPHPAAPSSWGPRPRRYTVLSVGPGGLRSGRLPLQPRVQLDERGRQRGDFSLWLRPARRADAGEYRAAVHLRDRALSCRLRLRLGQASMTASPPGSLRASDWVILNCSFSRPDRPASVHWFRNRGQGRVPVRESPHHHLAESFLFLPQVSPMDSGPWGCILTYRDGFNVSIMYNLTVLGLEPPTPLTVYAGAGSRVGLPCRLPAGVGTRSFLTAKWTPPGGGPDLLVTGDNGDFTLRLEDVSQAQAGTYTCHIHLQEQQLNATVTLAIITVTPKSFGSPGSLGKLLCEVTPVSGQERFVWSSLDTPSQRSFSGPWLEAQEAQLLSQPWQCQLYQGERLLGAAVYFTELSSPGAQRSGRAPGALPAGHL
Nature of the assay: FACS, inhibition of LAG-3-hFc binding to MHC II on Raji cells, antibody 0.823 nM. As to the method: The FACS reaction plate incubating the Raji cells was centrifuged to discard the supernatant. The above mixture was added as 100 μl per well to Raji cells and incubated on ice for 1-2 hours. The plate was washed twice with blocking solution (PBS, 2% fetal bovine serum) by centrifugation, added with 100 microliters of fluorescent (Alexa 488)-labeled secondary antibodies per well, and incubated on ice for 1.0 hours. The plate was washed 2-3 times by centrifugation with blocking solution (PBS, 2% fetal bovine serum), added with 100 microliters of PBS per well to suspend cells, and detected using FACS (FACS Calibur, BD) and the results were analyzed. Wherein, the IgG control was murine IgG, and the data in the table is the inhibition rate (%).

The target of assay [2] is T2, human LAG-3 on cells (HEK293-hLAG-3 stable cell line) (human, UniProt P18627 23-525).
T2 sequence: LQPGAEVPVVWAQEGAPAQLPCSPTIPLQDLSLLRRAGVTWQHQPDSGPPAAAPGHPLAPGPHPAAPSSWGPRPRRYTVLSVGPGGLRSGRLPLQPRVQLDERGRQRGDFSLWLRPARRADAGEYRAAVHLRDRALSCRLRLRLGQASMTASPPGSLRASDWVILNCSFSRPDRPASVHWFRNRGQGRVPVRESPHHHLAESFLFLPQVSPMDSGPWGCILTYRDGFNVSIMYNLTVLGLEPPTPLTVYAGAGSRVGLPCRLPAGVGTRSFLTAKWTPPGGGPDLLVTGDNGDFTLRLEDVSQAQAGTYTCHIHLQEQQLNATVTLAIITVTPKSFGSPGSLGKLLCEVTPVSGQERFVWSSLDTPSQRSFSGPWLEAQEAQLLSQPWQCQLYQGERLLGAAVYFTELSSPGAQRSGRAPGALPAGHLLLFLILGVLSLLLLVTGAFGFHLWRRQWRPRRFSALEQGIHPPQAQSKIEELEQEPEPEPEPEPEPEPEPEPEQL
The assay is described as follows: FACS, HEK293-hLAG-3, antibody 0.320 nM. From the text:
(§1) The pIRES plasmid with the monkey-derived full-length gene was transfected into the HEK293 cell line to construct a HEK293 stable cell line containing monkey LAG-3 (herein referred to as HEK293-cLAG-3 stable cell line). The HEK293-hLAG-3 stable cell line and HEK293-cLAG-3 stable cell line were expanded in a T-75 cell culture flask to a 90% confluence. The medium was aspirated, and the cells were washed with HBSS (Hanks' Balanced Salt Solution) 1-2 times, then treated with a enzyme-free cell dissociation fluid (Versene solution: Life technology) and the cells were collected. The cells were washed with HBSS buffer for 1-2 times. After counted, the cells were diluted with HBSS to 1-2×10⁶ cells per ml, added with 1% goat serum blocking solution, incubated on ice for 20-30 minutes, and then washed with HBSS for 2 times by centrifugation. The collected cells were suspended in the FACS buffer (HBSS+1% BSA) to 2×10⁶ cells/ml, added as 100 microliters per well to a 96-well FACS reaction plate, added with 100 microliters per well of the antibody sample to be tested, incubated on ice for 1-2 hours. The plate was washed twice with the FACS buffer by centrifugation, added with 100 microliters of fluorescent (Alexa 488)-labeled secondary antibodies per well, and incubated on ice for 0.5-1.0 hours. The plate was washed 2-3 times with FACS buffer by centrifugation, added with 100 μl fixative solution (4% Paraformaldehyde) per well to suspend the cells. 5-10 minutes later, it was washed 1-2 times with FACS buffer by centrifugation. The cells were suspended with 100 microliters of FACS buffer, FACS (FACSCalibur, BD) was used for detection and the results were analyzed.
A general note: In flow cytometry, cells or beads pass a laser one at a time.

Assay [3] deals with T3, human LAG-3 protein with hFc tag (hLAG-3-hFc protein) (human, UniProt P18627 23-450).
T3 construct: also called immunogen 1; LAG-3 extracellular domain protein; not shown: human IgG Fc fragment (hFc) of the pCpC vector
T3 sequence: T1 sequence
The assay is described as follows: ELISA, hLAG-3-hFc coated; 0.0000 nM. The protocol: The plate was sealed with plastic film and incubated overnight at 4° C. The plate was washed 2 times with the plate washing solution (PBS+0.01% Tween20) on the next day, and added with the blocking solution (PBS+0.01% Tween20+1% BSA) and blocked at room temperature for 1-2 hours. The blocking solution was poured out, and the plate was added with 50-100 μl of the antibody sample to be tested to each well, incubated at 37° C. for 1-2 hours, and washed 2-3 times with a plate washing solution (PBS+0.01% Tween20). HRP (horseradish peroxidase) labeled secondary antibody was added, and the plate was incubated at 37° C. for 1-2 hours, and washed 2-3 times with a plate washing solution (PBS+0.01% Tween20). 100 μl of TMB substrate was added to each well. After incubated at room temperature for 15-30 minutes, the plate was added with 100 μl of stop solution (1.0N HCl) to each well.
A general note: An ELISA detects its analyte on a solid surface through an enzyme-linked reagent.

Assay [4] deals with T4, human LAG-3 (full length, on the cell surface) (human, UniProt P18627 23-525).
T4 construct: Full-length human LAG-3 expressed on cells; also called HEK293-hLAG-3; HEK293 cells transfected with LAG-3 gene
T4 sequence: T2 sequence
Nature of the assay: FACS, HEK293-hLAG-3; 0.320 nM.
Text: as §1

Where a chain is given by its changes, count along the chain named.

B1: 556F6B8 mouse-human chimeric antibody (antibody, V domains shown)
VH: RVQLKQSGPGLVQPSQSLSITCTVSGFSLIKYGVHWVRQSPGEGLEWLGVIWRGGITDYNAAFMSRLSITKDNSKSQVFFKMNSLQADDTAIYYCAKWDGPLAMDYWGQGTSVTVSS
VL: DIVMTQSHKFLSTSVGDRVSITCKASQDVGTTVAWYQQKPGQSPKLLIYWASTRHTGVPDRFTGSGSGTDFTLTISNVQSEDLADYFCQQYSSYPYTFGGGTKLEIK
notes: also called mAb123-556F6B8; 556F8B8
B1: in assay [1], the “Inhibition rate (%)” value amounted to 29.7%. The molecule also showed a Mean fluorescence intensity in assay [2] of 14.3.

B2: 556F6B8 (LAG-3 mouse-human chimeric antibody) (antibody, V domains shown)
VH: B1 VH
VL: B1 VL
notes: also called 556F8B8
For B2, the OD450 in assay [3] was 0.12 OD450.

B3: 556F6B8 (mouse antibody purified from hybridoma) (antibody, V domains shown)
VH: B1 VH
VL: B1 VL
notes: also called mAb123-556F6B8
In assay [4], B3 displayed a Mean fluorescence intensity of 16.1 MFI.

B4: 405B8H3 (mouse antibody purified from hybridoma) (antibody, V domains shown)
VH: QVQLQQSGAELVRPGASVTLSCKASGYTFTDYEMHWVKQTPVHGLEWIGATDPETGNSAYNQKFKGKAIMTADKSSSTAYMELRSLTSEDSAVYYCISTGWNDWGQGTSLTVSS
VL: DIKMTQSPSSMYASLGERVTITCKASQDINSYLSWFQQKPGKSPKTLIYRADRLLDGVPSRFSGSGSGQDYSLTISSLEYGDMGIYYCLQYDEFPYTFGGGTKLEIK
notes: also called mAb103-405B8H3; 405B81-13
As for B4, the Mean fluorescence intensity in assay [4] stood at 24.7 MFI.

B5: 105F1E10 (mouse antibody purified from hybridoma) (antibody, V domains shown)
VH: EVQLQQSGPELVKPGASVKMSCRASGYTFTDFKMHWMKQSHGKSLEWIGYIAPNNGGTAYNQKFRGKATLTVNESSNTAYMELRSLTSEDSAVYYCVDWDDVDYWGQGTTLTVSS
VL: B4 VL with P40S, D52N, L55V, G81E, D92V, Y96L, G100A, I106L
notes: also called mAb009-105F1E10
In assay [4], B5 yielded a Mean fluorescence intensity of 23.3 MFI.

B6: 405B8H3 (LAG-3 mouse-human chimeric antibody) (antibody, V domains shown)
VH: B4 VH
VL: B4 VL
notes: also called mouse-human chimeric antibody 405B8H3
In turn, B6 yielded an OD450 in assay [3] of 0.12 OD450.

B7: 405B8H3 mouse-human chimeric antibody (antibody, V domains shown)
VH: B4 VH
VL: B4 VL
notes: also called mAb103-405B8H3
With B7, the “Inhibition rate (%)” value in assay [1] came out at 17.5%. Besides, the Mean fluorescence intensity in assay [2] worked out at 17.3.

B8: 105F1E10 (LAG-3 mouse-human chimeric antibody) (antibody, V domains shown)
VH: B5 VH
VL: B4 VL with P40S, D52N, L55V, G81E, D92V, Y96L, G100A, I106L
In turn, B8 had an OD450 in assay [3] of 0.11 OD450.

B9: 105F1E10 mouse-human chimeric antibody (antibody, V domains shown)
VH: B5 VH
VL: B4 VL with P40S, D52N, L55V, G81E, D92V, Y96L, G100A, I106L
notes: also called mAb009-105F1E10
For the molecule B9, the “Inhibition rate (%)” value in assay [1] is -0.3%. Further, the Mean fluorescence intensity in assay [2] was determined as 10.7.

B10: 409B11E12 (mouse antibody purified from hybridoma) (antibody, V domains shown)
VH: B4 VH with P41T, G56S, N57Y, M70L, S98A
VL: B4 VL with I2L, D52N, G81E
notes: also called mAb104-409B11E12
Turning to B10, the Mean fluorescence intensity in assay [4] amounted to 13.4 MFI.

B11: 409B11E12 mouse-human chimeric antibody (antibody, V domains shown)
VH: B4 VH with P41T, G56S, N57Y, M70L, S98A
VL: B4 VL with I2L, D52N, G81E
notes: also called mAb104-409B11E12
B11: in assay [1], the “Inhibition rate (%)” value was found to be 24.4%. The molecule also yielded a Mean fluorescence intensity in assay [2] of 16.8.

B12: 409D4E10 mouse-human chimeric antibody (antibody, V domains shown)
VH: B4 VH with Y27N, G56D, S58T, M70L, A72T, S98T, T99S
VL: B4 VL with D52N, G81E, D92N
notes: also called mAb112-409D4E10
Take B12: in assay [1], the “Inhibition rate (%)” value worked out at 20.9%. This molecule also yielded a Mean fluorescence intensity in assay [2] of 15.7.

B13: 409D4E10 (mouse antibody purified from hybridoma) (antibody, V domains shown)
VH: B4 VH with Y27N, G56D, S58T, M70L, A72T, S98T, T99S
VL: B4 VL with D52N, G81E, D92N
notes: also called mAb112-409D4E10
In assay [4], B13 came in with a Mean fluorescence intensity of 13 MFI.

B14: 409D4E10 (LAG-3 mouse-human chimeric antibody) (antibody, V domains shown)
VH: B4 VH with Y27N, G56D, S58T, M70L, A72T, S98T, T99S
VL: B4 VL with D52N, G81E, D92N
As to B14, in assay [3], the OD450 turned out to be 0.14 OD450.

B15: 409B11E12 (LAG-3 mouse-human chimeric antibody) (antibody, V domains shown)
VH: B4 VH with P41T, G56S, N57Y, M70L, S98A
VL: B4 VL with I2L, D52N, G81E
Molecule B15 returned an OD450 in assay [3] of 0.13 OD450.

(Values after US20210155689A1 (SHANGHAI PHARMAEXPLORER, published 2021).)
